Assay: soluble on expression in E. coli; label from the status in PepcDB or PDB records

Row | Sequence | soluble on expression in E. coli
1 | MGSDKIHHHHHHMRGCFSVTGVEDVCERLGVPCVPLDDPVEVSGEVFQKIKISRKVLEADKVVNLPKLKTHSQMVMTLGVKNTFGCVVGLEKSSWHMRAKNYDDFANLLIDIHRIVSPVLTILDGVEGMEGNGPTNGKKKHFGLVAVSKNAFALDDAVCKALGIDHVVYTVQHARKRRVVPDYEIVGTFHASIQLPSTVSTLDRLSRTFSRFFVKYPKIDTRKCVKCRLCEERCPASAIDISSQRIDYQKCIRCYVCHEVCPQDAIKLVRRLV | not soluble
2 | MSYNSIRLPQDLPIYYKNFFPVKPFTKWLCYGQNYGDYFNRREFTFILADDVHIRYRSYNDEHSFVKALSSTNPEKLDIGAVYNHEPINNKRYTDYQAVERELVFDIDLTDYDPVRNCCKDATVCPKCWKFMVLAVRILDFQLEEMFNFKARMWVFSGRRGVHCWVGDKKARMLNNNQRSAIATRLNLFKKNGQCEVTEGRAKLTRVPPTVRDAFNVALKDGVFEKMIYEQGWLDNDRFIIDYQYMSEFGRDDLRRISESFKTPQERWHMLRGLFDNDYRKTLSQNDGLLDFVNNARSRPKKVLLYFVLQRCYPRLDANVTTGTNHLLKSPFCIHPKTGNVAVPLNVEKIGEFDVSKCPRIDHVVEELSSLLTERGNDGDEDSKNRKFLAYKHGALSPYVENFEMFVSACIS | not soluble
3 | MAHHHHHHMFQRARFLLLPIDDVLPAGSRWSRVTALPTSHAHPSGASRASRTGPVTANTTSALPPTPYITFIPTLHVASVKFYDAVLDYMRESVEKNSNVVVLLEGICDNKEGRIQQMDEYMQISRSEELRAAMLEKAEKNTLYNDETIRTICDELAVNYDVLSRELETVRLQECYLRPKMAALMGKNLCNEADIDMEEVEALMLEGDNNDHSGSYGACGSGSVVPITSIGSHPAVRRSREMKVARKARATCVDWLKHGVAGEVILPWGIYHVEGIQRNVLSLNAQDEGIVFVESGNDIRHVPFGIHRDLLVL | not soluble
4 | MGSDKIHHHHHHMDANSLKAFLTIVDQGSFSEAAETLHLTQPAISKRLAALETQLGTRLIDRSNREIRLTEAGTRLLPHARKILDEIHNARMALTTSADSIGGELHAIASHHIGLHHLPNWLRRYRREYPQVDLHLQFMESDAAYDQMNKRNAELAFVTLSDSMNPEFSILAQWPDPMAFVVGKEHPLATLASPSLSDLAPHPALLPDTSTATYRVVSRLFLEANLTLRPLMPTNYLETIKMMVSVGLGWSILPVSMLDNSLKVLEVPHPVTRVLGAVALSRRQLGSAAQALLQIVEQEETRPESGQ | not soluble
5 | MGSDKIHHHHHHMDSVDLEVLRSSVRWQQEGHRVLLVTVVRTWGSSPRPEGAMLAVRDDGLVVGSVSGGCIEDDLIDRVRRLGITADHPESVKYGISAEEAHRFGLPCGGTIELVTEPLKPASGIAELLDAVENGRLATRTLDMATGTATLGPAEATDGLVFDGNSLLTIHGPRYRMLVIGAGQLSKYLCQIAVGLGFQVTVCDPREEYTETWDIPGVTMVRTMPDDTVTDMKLDERCAVIALTHDPKLDDLALMEALRTRAFYVGALGSRRNNQARRERLKEFDLNDVQLARLHGPVGIFIGSRTPPEIAISILAEVVAAKNHVSLPDILQVEGAKAARELAAGTGSSCDT | not soluble
6 | MSLDQAAVCLTICRINQLLSPSLLLKWWKADPSMSLTSPVLQTVTRDQIKAAALKNEIEQFYPKLPRVLAAYREQGINTIPISSKQYPFWLKSIYDPPAVLFAKGDMTLLSKGRKIGIVGTRNPTAYGKQVVNHLTKEICRKGWVIVSGLASGIDGMSHAASIKAKGRTIGVIAGGFQHIYPRENLQLADHMAKHHILLSEHPPETKPQKWHFPMRNRIISGLSEGVIVVQGKEKSGSLITAYQALEQGREVFAVPGSLFDPYAGGPIKLIQQGAKAIWSAEDIFEELPERNVQYTEPFEGHHHHHH | not soluble
7 | MSLMLYFITFREARVLLKSRDLALINVDLMKTGKKIRVRVSKDYVEFPDGSRVKKEIIKRIAEDEGNVYFVRDGEVFKAAIAGEHFYKLVPTIPPTIEINGIRMHRTKGTDPLKDTIAKVNTVKPREGEVVLDTCMGLGYTAIESAKRGARVITIEKDPNVIELAKINPWSRELFESPKIKILQGDSFDLIKKFEDESFDVIIHDPPRFSLAGELYSEEFYMEMFRVLKPGGRLFHYVGNPGKRYRGLDLQKGVMERLRRVGFMKVRRVQEALGVFALKPSLEEGHHHHHH | not soluble
8 | MSNVAENNDGVYDAPTGITAPPIDELLKHVSSKYALVIFAAKRARQINSYYQQADEGVFEFVGPLVTPEAQEKPLSIAMREIEAGLLDHEEG | not soluble
9 | GSPGISGGGGGILDSMVEKEEPKEEEKLGKLQYSLDYDFQNNQLLVGIIQAAELPALDMGGTSDPYVKVFLLPDKKKKFETKVHRKTLNPVFNEQFTFKVPYSELGGKTLVMAVYDFDRFSKHDIIGEFKVPMNTVDFGHVTEEWRDLQSAE | soluble
10 | MSLTQMPNVHDAEPIPEAARAEIDRLLLSGDLFRYTAPQDAPVALLEREFAALLGTKYALAVSSCSAALFLSLKALDLPRDARVLIPGFTFAAVPSSVVHADCVPVLCEVGENYRIDMADFKARLDDVQAVIVSHMRGHTSDMDAILSLCAARDIPVVEDAAHSLGTLWHGEKIGTLGRVGCFSFQSYKMVNAGEGGILVTDDADLVARAVIMSGAYEHNWAKHVDGDDPALSEAFARWQNKLPLYNLRLSNLSAAVIRPQLPLLAERVRRGLENHDYVADKLNSSPVLSVPAPLVAETRAPDSIQFNLVGLSDDEVTRFAEAAAARGIKVQIFGKSADNARAFWNWQFLPGGAPELPRTRDMLMRACDVRLPVRLTRDELDLIANALLAAAAEVQGPLRVYGTEGHHHHHH | soluble
11 | MGSDKIHHHHHHMTYKVLHVGAGGFGERWCDTFLPSNNSDGTIEVVGLVDIDARALEIGRKHLGLKAKQCFTSAAQAFKAVDADFCTIVIPPALHEGIVDLALERGMHILSEKPIAATMEASVRIADKVRVAGRKMAVTMSHRFDQDKSTLRALVSDEALGRVNTVSCRFAGDYRAYDSWGRFRHEMIHPMLIEGAVHHLDIMADLAGAPCTSIYARSWKPEWAEYKGETDVMVLMDFANGAHGVYEGSSAQATGLNDWTFEYVRVEAASGTAILDHREVEVFHRDPKRIYQKNRHGKGQQVSLLGGKKWKNSLLIEQFCHWLDGGPPMATNVEDNLQSVALIFSAIESARLGQPVKVQEFLQSFRKSASIETQ | not soluble
12 | GPGSMEATVAPSTGLRQLRRVRRARTQYERLQRPDDIQPGYPIPSIEGWVLFFSNLPETTTQEDIANYLVSFKEGDPDYFGAITDIKIPLNADCFCAGYALVELEDRAGYERAIAELNGTVFPSADKPLVVAPTFLGEEEEQEPQAEEVAPGEKRARD | soluble
13 | SFREQDIYLPIANVARIMKNAIPQTGKIAKDAKECVQECVSEFISFITSEASERCHQEKRKTINGEDILFAMSTLGFDSYVEPLKLYLQKFRE | soluble
14 | MSVTEHKKQAPKEVRCKIVTISDTRTEETDKSGQLLHELLKEAGHKVTSYEIVKDDKESIQQAVLAGYHKEDVDVVLTNGGTGITKRDVTIEAVSALLDKEIVGFGELFRMISYLEDIGSSAMLSRAIGGTIGRKVVFSMPGSSGAVRLAMNKLILPELGHITFELHRQ | soluble
15 | MGVLLREALRSMCVNNQWSYAVFWKIGCQNSSLLIWEECYNETESSSNPRRLCGLGVDTQGNEKVQLLTNRMMLNNRIILVGEGLVGRAAFTGHHQWILANSFNRDVHPPEVINEMLLQFSAGIQTVAVFPVVPHGVVQLGSSLPIMENLGFVNDVKGLILQLGCVPGALLSENYRTYEPAADFIGVPVSRIIPSQGHKILQSSAFVAETSKQHFNSTGSSDHQMVEESPCNLVDEHEGGWQSTTGFLTAGEVAVPSNPDAWLNQNFSCMSNVDAAEQQQIPCEDISSKRSLGSDDLFDMLGLDDKNKGCDNSWGVSQMRTEVLTRELSDFRIIQEMDPEFGSSGYELSGTDHLLDAVVSGACSSTKQISDETSESCKTTLTKVSNSSVTTPSHSSPQGSQLFEKKHGQPLGPSSVYGSQISSWVEQAHSLKREGSPRMVNKNETAKPANNRKRLKPGENPRPRPKDRQMIQDRVKELREIIPNGAKCSIDALLERTIKHMLFLQNVSKHSDKLKQTGESKIMKEDGGGATWAFEVGSKSMVCPIVVEDINPPRIFQVEMLCEQRGFFLEIADWIRSLGLTILKGVIETRVDKIWARFTVEASRDVTRMEIFMQLVNILEQTMKCGGNSKTILDGIKATMPLPVTGGCSM | not soluble
16 | MPTVPIPARKAATTFDTPSKHERIEVKPPITRFIRRAITRVFGVWSHISTQVVRQWGWYPRVEPYVGYGTGDYSRLICRTVYAPKHAQSGELIRGIRGMLAVPAPRTHVQASIDDMPLNTVQIGVSEVYDKVDRTRDLGSEYAISDSAGYLDLVAEHRLVPGIHRVSYSVANRKPVSANLYTIPASAKVGIISDVDDTIMITQAPVPWKAAYNLLFLDPKKKASVPGMSVLFTRIADLFPGAPFFYLSTSPWNVESSIRNFITDHGFPEGPLLLRDLDPRPKTFVPTGPQHKLEFAEQLMADFPDMKFILVGDDGQKDPTTYATIARRYPGRVLAIVIRELSPRESTGLASVTGLTSTQPTPVTDVPVFTGTTGSNILKTMLPYLKTVLRLEHHHHHH | not soluble
17 | QSRTPTIFFHGYGSSANAETHMTNAAKKAGVTKTVILAYVDQNGHVTLVGKIPKNAINPIVKVNFADNRNADYDTDAKYAKAVVSKLQKTYHFKKMNMVGHSMGNMAINFYMLANAEDKTLPQLQKQVDIAGHFDGIKNYDLPQNLTINAKTGQPNAMTAAYKRLLKLQERYPKDQVDVLNLYGDKGDGSDGIVTNDSSRTLKYLIGERAKSYQEHRFTGKLAGHSKLHENPQVDKFLINFLWGK | not soluble
18 | MKEKGGDSLKYCYQCGLCDSVCPWNRVRQFSMRKIVRQGTFGLTEIEQEDIWRCSTCGTCPSRCPRGVNQIEAGVAMRRIGAEYDVYPGHVGTIRNVVASLTSEGNSLEHHHHHH | not soluble
19 | MKIAKFTRINAHQVQNCNNEKIAHERKMEKVFEFLAEDKKTFEASNSFERTLIFCKHDKSAMAALLTLYDSKTIFGTFSEYLITNDKTVLERERVQVNNGEKMLAICNMDFMDDFQLGLAKHYIFLDFPLKIIGIKKMLDRLNTMAQQSEQVIDIDFLTTNMDARIYQEALNMEMTMRGSQVPKWLTELVNGSSELPEDPDVIFVRTCKPDLEPLTAKPAKLPSPRQPESKPSNEASSSQLEPTSASQPPSRVDQILKSRSGLPTKDADSSSEVAPRKRKPKSPAFDIYNMKRQPDGTFLIPSHVMGFCNEDLSEDDEEPDPEYDSEEEYNWMYKLDVW | not soluble
20 | MRTDPERFILDNAAIMHPPHVPELRLHLATEAHELWLKTEEELEEIGLPPPFWAFAWAGGQGLARYILDHPESVCGKRVLDFASGSGLVAIAAAKAGAAKVLAADIDPWTETAIRLNAALNGVDIGFTGLDLVGKPVDADVLLAGDVFYDRAFADLLVPWFVELTEKGMIVLVGDPGRAYLPKERLRAEATYQVPVTRALEDSDVKKTTVWRFILEHHHHHH | soluble
21 | MVHAFLIHTLRAPNTEDTGLCRVLYSCVFGAEKSPDDPRPHGAERDRLLRKEQILAVARQVESMCRLQQQASGRPPMDLQPQSSDEQVPLHEAPRGAFRLAAENPFQEPRTVVWLGVLSLGFALVLDAHENLLLAEGTLRLLTRLLLDHLRLLAPSTSLLLRADRIEGILTRFLPHGQLLFLNDQFVQGLEKEFSAAWPR | not soluble
